From the Human Domainome abundance scans (Beltran et al. 2025)

B1: Nuclear receptor subfamily 4 group A member 2, residues 260 to 336; numbered along this chain, P43354 (parent)
chain: EGLCAVCGDNAACQHYGVRTCEGCKGFFKRTVQKNAKYVCLANKNCPVDKRRRNRCQYCRFQKCLAVGMVKEVVRTD

Variants of: B1
Test: abundance fitness (aPCA) (normalised: wild type 0, dead -1); higher = more abundant; growth selection in yeast, the domain comes from the species named
Conditions: Homo sapiens

Abundance fitness: each site, then its substitutions
C64: G -0.277; L -0.372; W -0.859; S -0.397; F -0.848; A -0.163; R -0.608; I -0.399
G68: M -0.085; C -0.489; L -0.589; V -0.836; I -0.481; D -0.403; A -0.26; S -0.287; F -0.436; N -0.126; R -0.314; E -0.63
R60: F -0.115; G -0.648; V 0.01; E -0.651; W 0.014; S -0.033; M 0.053; I -0.355; L 0.047
K71: E -0.046; A 0.008; P 0.141; L -0.078; M -0.352; Y 0.114; R -0.054; G -0.081; W -0.194; F -0.258; I -0.19; Q 0.33; D -0.296
F61: C -0.701; S -0.235; R -0.989; Q -0.187; L 0.057; W -0.05; T -0.377; M 0.072; G -1.01; V -0.401; I 0.007; D -0.745
A66: R -0.114; L 0.005; D 0.135; T -0.223; E -0.051; F -0.228; K -0.2; G -0.013; M -0.032; N 0.101; V -0.17; I -0.099; C -0.21; W -0.282
L65: M -0.262; A -0.146; T -0.659; Y -0.317; E -0.038; V -0.096; S -0.308; W -0.299; I -0.274; N 0.153; G -0.264
V73: L -0.065; D -0.105; H 0.014; M -0.032; F 0.02; E -0.063; A -0.258; C -0.131; G -0.024
V70: E 0.062; I 0.102; W -0.255; M -0.055; L -0.023; R -0.013; A 0.06; G -0.017; K -0.208; P -0.197; F -0.095; S -0.053
Q62: L -0.137; I -0.241; R -0.234; F -0.31; S 0.018; E -0.245; C -0.153; V -0.137; W -0.345; G -0.297; A -0.095; K 0.079; D -0.139; N -0.38; M 0.079
M69: E -0.448; I -0.618; V -0.285; C -0.247; R -0.64; D -0.704; G -0.463; A -0.191; W -0.235; F -0.042; L -0.07; S -0.627
E72: F -0.267; A -0.133; T 0.092; C -0.344; I -0.173; N 0.024; D 0.11; W -0.276; P 0.116; V -0.268; L -0.468; S -0.012; G -0.067; K 0.154; M -0.099
K63: T 0.038; G -0.559; V -0.304; A -0.048; L -0.354; E -0.898; D -0.52; R -0.206; M -0.025; W -0.569
V67: M -0.035; F -0.449; A -0.029; D -0.728; C -0.114; S -0.097; H -0.088; R -0.134; W -0.706; K 0.086; E -0.017; L -0.078; T -0.06; I 0.058; G -0.261
